In patent publication US12344890B2, “Process for cognate nucleotide detection in a nucleic acid sequencing workflow” (priority 2017, dated 2025):

Key:
[1] = target: T1, Therminator™ DNA polymerase (Thermococcus sp., UniProt Q56366, A485L/D141A/E143A); assay type: biochemical, Thermococcus species 9° N; conditions: incorporation assay, averaged from three trials
T1 construct: purchased New England BioLabs
Text: Each nucleotide included a fluorescent moiety constructed on a Cy-5 scaffold. […] In the case of the labeled dUTP analog, the comparison was against dTTP.

[2] = tested on: Nc1ccn([C@H]2C[C@H](O)[C@@H](COP(=O)(O)OP(=O)(O)OP(=O)(O)O)O2)c(=O)n1; experiment: purified protein, by the assay type; conditions: other: incorporation assay, Therminator DNA polymerase; averaged from three trials
[3] = tested on: Nc1nc2c(ncn2[C@H]2C[C@H](O)[C@@H](COP(=O)(O)OP(=O)(O)OP(=O)(O)O)O2)c(=O)[nH]1; experiment: purified protein, by the assay type; conditions: other: incorporation assay, Therminator DNA polymerase; averaged from three trials
[4] = tested on: Nc1ncnc2c1ncn2[C@H]1C[C@H](O)[C@@H](COP(=O)(O)OP(=O)(O)OP(=O)(O)O)O1; experiment: purified protein, by the assay type; conditions: other: incorporation assay, Therminator DNA polymerase; averaged from three trials

T1 sequence (Q56366 whole entry D141A/E143A/A485L): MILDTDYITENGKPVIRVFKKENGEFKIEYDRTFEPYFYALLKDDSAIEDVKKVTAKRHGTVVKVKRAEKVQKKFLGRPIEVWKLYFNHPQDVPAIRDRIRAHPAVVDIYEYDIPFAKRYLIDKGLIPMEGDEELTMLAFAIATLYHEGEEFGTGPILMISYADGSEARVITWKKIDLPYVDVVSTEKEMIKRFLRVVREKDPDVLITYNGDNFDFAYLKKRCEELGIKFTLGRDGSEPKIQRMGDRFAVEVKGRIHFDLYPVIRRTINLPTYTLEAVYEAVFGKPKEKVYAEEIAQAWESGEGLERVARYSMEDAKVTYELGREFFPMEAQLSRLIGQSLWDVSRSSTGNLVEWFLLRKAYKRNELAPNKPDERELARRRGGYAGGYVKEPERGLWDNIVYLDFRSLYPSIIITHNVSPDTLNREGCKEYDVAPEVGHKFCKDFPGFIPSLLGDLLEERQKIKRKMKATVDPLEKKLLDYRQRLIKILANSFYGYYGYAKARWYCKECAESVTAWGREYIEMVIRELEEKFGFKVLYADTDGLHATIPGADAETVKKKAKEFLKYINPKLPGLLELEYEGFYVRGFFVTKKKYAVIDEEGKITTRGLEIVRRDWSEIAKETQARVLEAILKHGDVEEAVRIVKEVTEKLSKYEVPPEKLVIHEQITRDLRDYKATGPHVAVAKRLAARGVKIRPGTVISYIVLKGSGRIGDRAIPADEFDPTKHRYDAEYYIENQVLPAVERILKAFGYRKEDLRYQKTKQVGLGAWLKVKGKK

Compound | Km [1] [nM] | Km [2] [µM] | Km [3] [µM] | Km [4] [µM]
Cc1cn([C@H]2C[C@H](O)[C@@H](COP(=O)(O)OP(=O)(O)OP(=O)(O)O)O2)c(=O)[nH]c1=O [dTTP, 2′-deoxythymidine-5′-triphosphate] | 920 | – | – | –
Therminator™ DNA polymerase (Thermococcus sp. 9oN-7; A485L/D141A/E143A) | – | 0.82 | 0.23 | 0.05
